Assays:
Test in all cases: fluorescence polarisation
[1] = molecular target: T1, Rb^P R741S (human, UniProt P06400 380-788, R741S)
T1 sequence: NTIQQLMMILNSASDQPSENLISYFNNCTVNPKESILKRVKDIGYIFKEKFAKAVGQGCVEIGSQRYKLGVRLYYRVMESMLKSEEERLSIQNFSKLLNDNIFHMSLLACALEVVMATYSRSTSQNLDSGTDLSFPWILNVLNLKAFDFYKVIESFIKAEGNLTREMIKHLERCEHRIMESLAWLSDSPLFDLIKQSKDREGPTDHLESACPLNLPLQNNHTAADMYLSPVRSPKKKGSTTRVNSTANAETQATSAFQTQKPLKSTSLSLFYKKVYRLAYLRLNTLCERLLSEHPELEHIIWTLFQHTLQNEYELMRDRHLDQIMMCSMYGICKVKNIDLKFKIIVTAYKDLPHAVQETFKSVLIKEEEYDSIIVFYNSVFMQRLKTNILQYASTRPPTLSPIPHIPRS

[2] = molecular target: T2, Rb^P S474I (human, UniProt P06400 380-788, S474I)
T2 sequence: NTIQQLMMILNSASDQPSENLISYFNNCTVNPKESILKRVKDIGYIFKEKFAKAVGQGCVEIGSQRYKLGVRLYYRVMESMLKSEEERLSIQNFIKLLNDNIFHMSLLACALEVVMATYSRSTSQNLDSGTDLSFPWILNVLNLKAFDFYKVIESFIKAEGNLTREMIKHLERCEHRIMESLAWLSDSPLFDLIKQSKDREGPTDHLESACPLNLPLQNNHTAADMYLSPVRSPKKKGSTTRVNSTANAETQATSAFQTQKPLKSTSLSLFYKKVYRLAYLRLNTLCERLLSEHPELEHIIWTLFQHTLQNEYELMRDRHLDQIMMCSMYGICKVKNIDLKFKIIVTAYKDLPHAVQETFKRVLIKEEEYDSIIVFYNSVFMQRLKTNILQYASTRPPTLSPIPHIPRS

[3] = molecular target: T3, Rb^P I703V (human, UniProt P06400 380-788, I703V)
T3 sequence: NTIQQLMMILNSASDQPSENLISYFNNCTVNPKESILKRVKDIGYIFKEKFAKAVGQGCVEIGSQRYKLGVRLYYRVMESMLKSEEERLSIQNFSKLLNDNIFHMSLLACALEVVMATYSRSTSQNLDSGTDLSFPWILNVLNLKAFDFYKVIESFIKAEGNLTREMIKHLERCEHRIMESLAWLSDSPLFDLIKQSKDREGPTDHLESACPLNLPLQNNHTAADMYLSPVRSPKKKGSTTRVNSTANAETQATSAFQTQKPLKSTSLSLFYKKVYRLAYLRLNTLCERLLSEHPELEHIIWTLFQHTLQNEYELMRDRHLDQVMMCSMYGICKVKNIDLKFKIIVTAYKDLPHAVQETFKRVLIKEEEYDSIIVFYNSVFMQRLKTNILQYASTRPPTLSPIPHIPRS

[4] = molecular target: T4, wild type Rb pocket domain (Rb^P) (human, UniProt P06400 380-788)
T4 sequence: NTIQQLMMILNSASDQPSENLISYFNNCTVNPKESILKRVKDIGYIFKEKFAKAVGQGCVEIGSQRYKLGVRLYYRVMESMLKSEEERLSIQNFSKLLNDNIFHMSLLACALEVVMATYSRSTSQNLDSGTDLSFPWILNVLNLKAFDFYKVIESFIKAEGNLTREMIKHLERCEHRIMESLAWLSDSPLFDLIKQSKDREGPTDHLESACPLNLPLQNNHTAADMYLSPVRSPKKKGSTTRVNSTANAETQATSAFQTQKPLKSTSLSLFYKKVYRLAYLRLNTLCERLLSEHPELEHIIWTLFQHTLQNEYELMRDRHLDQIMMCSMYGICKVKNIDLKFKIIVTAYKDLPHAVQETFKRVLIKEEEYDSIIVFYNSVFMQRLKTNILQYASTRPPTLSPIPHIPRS

[5] = molecular target: T5, Rb^P E492Q (human, UniProt P06400 380-788, E492Q)
T5 sequence: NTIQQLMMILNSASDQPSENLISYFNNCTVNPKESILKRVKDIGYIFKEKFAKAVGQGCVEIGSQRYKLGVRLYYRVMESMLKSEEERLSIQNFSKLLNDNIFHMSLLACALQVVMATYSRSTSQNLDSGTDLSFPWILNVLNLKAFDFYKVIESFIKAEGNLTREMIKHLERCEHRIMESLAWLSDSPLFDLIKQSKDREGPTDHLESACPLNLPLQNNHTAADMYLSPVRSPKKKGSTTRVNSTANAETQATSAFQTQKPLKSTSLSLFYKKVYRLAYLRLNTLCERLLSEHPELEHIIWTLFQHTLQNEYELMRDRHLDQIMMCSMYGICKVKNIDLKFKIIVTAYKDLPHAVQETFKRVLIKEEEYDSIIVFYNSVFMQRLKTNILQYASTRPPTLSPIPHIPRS

## DLYCYEQLN (not fully specified; TMR fluorescent label (TMR-E7^LxCxE)) [TMR-E7^LxCxE (LxCxE peptide of the E7 oncoprotein from HPV, TMR-labeled)]
[1]
  binding result: binds
[2]
  binding result: binds
[3]
  binding result: binds
[4]
  Kd: 12 nM
[5]
  binding result: binds

From publication doi:10.1101/2024.09.22.614354 (bioRxiv, 2024)
